Target: the molecule itself
Assay: static light scattering + AUC; Dpy30FL and Dpy30C in solution

B1: Dpy30 C-terminal domain (domain or fragment)
chain: not shown
  stoichiometry N: 2

Reference: article PMC4312765 (Protein & Cell, 2014)
